In US20260167721A1 (ABLEXIS, published 2026):

What was measured:
[1] = molecular target: T1, human CD3 (on human Pan-T cells or donor PBMC) (human, UniProt P07766 23-207; P04234 22-171; P09693 23-182; P20963 22-164); assay: cell-based or functional assay
[2] = molecular target: T1, human CD3 (on human Pan-T cells or …); assay: cell-based or functional assay; remark: listed apart in the source

T1 sequence (P07766 23-207, chain 1 of 4): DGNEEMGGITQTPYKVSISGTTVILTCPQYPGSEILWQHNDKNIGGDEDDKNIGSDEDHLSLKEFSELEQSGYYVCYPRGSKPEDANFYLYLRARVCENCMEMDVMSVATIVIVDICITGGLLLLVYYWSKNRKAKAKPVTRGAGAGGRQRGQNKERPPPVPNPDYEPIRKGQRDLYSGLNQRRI
T1 sequence (P04234 22-171, chain 2 of 4): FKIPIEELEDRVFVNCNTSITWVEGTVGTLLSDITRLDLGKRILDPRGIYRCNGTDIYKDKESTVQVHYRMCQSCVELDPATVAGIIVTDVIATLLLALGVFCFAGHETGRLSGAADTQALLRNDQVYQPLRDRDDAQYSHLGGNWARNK
T1 sequence (P09693 23-182, chain 3 of 4): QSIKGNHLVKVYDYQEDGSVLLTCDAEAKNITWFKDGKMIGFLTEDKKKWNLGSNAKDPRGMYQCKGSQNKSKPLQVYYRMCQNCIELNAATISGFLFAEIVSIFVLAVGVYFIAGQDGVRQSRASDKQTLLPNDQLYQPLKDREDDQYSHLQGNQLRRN
T1 sequence (P20963 22-164, chain 4 of 4): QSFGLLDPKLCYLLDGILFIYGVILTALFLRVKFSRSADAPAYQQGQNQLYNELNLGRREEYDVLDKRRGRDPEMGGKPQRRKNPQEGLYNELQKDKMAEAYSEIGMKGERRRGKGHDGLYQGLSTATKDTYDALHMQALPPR

Cytokine Release Assay (IFNγ), Donor 0, gMFI max [1]: 308000 gMFI
Cytokine Release Assay (IFNγ), Donor 1, gMFI max [1]: 4350 gMFI
Cytokine Release Assay (IFNγ), Donor 2, EC50 [1]: 8.61 nM
Cytokine Release Assay (IFNγ), Donor 2, gMFI max [1]: 26900 gMFI
Cytokine Release Assay (IFNγ), Donor 3, EC50 [1]: 4.64 nM
Cytokine Release Assay (IFNγ), Donor 3, gMFI max [1]: 198000 gMFI
RTCC Assay, Donor 0, EC50 [2]: 0.086 nM
RTCC Assay, Donor 0, gMFI max [2]: 15600 gMFI
RTCC Assay, Donor 1, EC50 [2]: 0.035 nM
RTCC Assay, Donor 1, gMFI max [2]: 79900 gMFI
RTCC Assay, Donor 2, EC50 [2]: 0.089 nM
RTCC Assay, Donor 2, gMFI max [2]: 56100 gMFI
RTCC Assay, Donor 3, EC50 [2]: 0.159 nM
RTCC Assay, Donor 3, gMFI max [2]: 74000 gMFI
B1: CD3 × CD33-BspAb73 (bispecific antibody)
chain 1: EVQLVESGGGLVKPGGSLRLSCAASGFTFSSYSMNWVRQAPGKCLEWVSSVNSRGSYIYYADSVKGRFTISRDNAKDSLYLQMNSLRADDTAVYYCARDRRELLLDYWGQGTLVTVSSGGGGSGGGGSGGGGSGGGGSSYELTQPPSVSVSPGQTARITCSGDALPKKYAYWYQQKSGQAPVLVIYEDSKRPSGIPERFSGSSSGTMATLTISGAQVEDEADYYCYSTDSSGNHSWVFGCGTKLTVLDKTHTCPPCPAPEFEGGPSVFLFPPKPKDTLMISRTPEVTCVVVDVSHEDPEVKFNWYVDGVEVHNAKTKPREEQYNSTYRVVSVLTVLHQDWLNGKEYKCKVSNKALPASIEKTISKAKGQPREPQVYTLPPCREEMTKNQVSLWCLVKGFYPSDIAVEWESNGQPENNYKTTPPVLDSDGSFFLYSKLTVDKSRWQQGNVFSCSVMHEALHNHYTQKSLSLSPGK
chain 2: EVQLVQSGAEVKKPGSSVKVSCKASGYTITDSNIHWVRQAPGQSLEWIGYIYPYNGGTDYNQKFKNRATLTVDNPTNTAYMELSSLRSEDTAFYYCVNGNPWLAYWGQGTLVTVSSASTKGPSVFPLAPSSKSTSGGTAALGCLVKDYFPEPVTVSWNSGALTSGVHTFPAVLQSSGLYSLSSVVTVPSSSLGTQTYICNVNHKPSNTKVDKRVEPKSCDKTHTCPPCPAPEFEGGPSVFLFPPKPKDTLMISRTPEVTCVVVDVSHEDPEVKFNWYVDGVEVHNAKTKPREEQYNSTYRVVSVLTVLHQDWLNGKEYKCKVSNKALPASIEKTISKAKGQPREPQVCTLPPSREEMTKNQVSLSCAVKGFYPSDIAVEWESNGQPENNYKTTPPVLDSDGSFFLVSKLTVDKSRWQQGNVFSCSVMHEALHNRFTQKSLSLSPGK
chain 3: DIQLTQSPSTLSASVGDRVTITCRASESLDNYGIRFLTWFQQKPGKAPKLLMYAASNQGSGVPSRFSGSGSGTEFTLTISSLQPDDFATYYCQQTKEVPWSFGQGTKVEVKRTVAAPSVFIFPPSDEQLKSGTASVVCLLNNFYPREAKVQWKVDNALQSGNSQESVTEQDSKDSTYSLSSTLTLSKADYEKHKVYACEVTHQGLSSPVTKSFNRGEC
